According to publication PMC8298264, “Function of cofactor Akirin2 in the regulation of gene expression in model human neutrophil-like HL60 cells” (Bioscience Reports, 2021):

Test system: human HL60 cells
Assay: SWATH-MS proteomics, differential protein representation, akirin2 KO vs WT HL60 cells
Assay type: cell-based
Conditions: KO vs WT; akirin2 KO vs WT HL60 cells; sheet "Under-represented in KO"
In short: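 WT and akirin2 KO HL60 lysates (150 µg, n=3 biological replicates) were FASP trypsin-digested and desalted. A spectral library was built by IDA from 3 µg digests, then 5 µg per sample went to variable-window SWATH DIA over a 120-min 5–30% acetonitrile gradient. Identifications were accepted at 1% global FDR, with total-area-sum normalization.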

Row | Molecule | Fold Change | Log (Fold Change)
1 | sp¦P35908¦K22E_HUMAN (protein, UniProt P35908 1-639, looked up) Keratin, type II cytoskeletal …: MSCQISCKSRGRGGGGGGFRGFSSGSAVVSGGSRRSTSSFSCLSRHGGGGGGFGGGGFGSRSLVGLGGTKSISISVAGGGGGFGAAGGFGGRGGGFGGGSSFGGGSGFSGGGFGGGGFGGGRFGGFGGPGGVGGLGGPGGFGPGGYPGGIHEVSVNQSLLQPLNVKVDPEIQNVKAQEREQIKTLNNKFASFIDKVRFLEQQNQVLQTKWELLQQMNVGTRPINLEPIFQGYIDSLKRYLDGLTAERTSQNSELNNMQDLVEDYKKKYEDEINKRTAAENDFVTLKKDVDNAYMIKVELQSKVDLLNQEIEFLKVLYDAEISQIHQSVTDTNVILSMDNSRNLDLDSIIAEVKAQYEEIAQRSKEEAEALYHSKYEELQVTVGRHGDSLKEIKIEISELNRVIQRLQGEIAHVKKQCKNVQDAIADAEQRGEHALKDARNKLNDLEEALQQAKEDLARLLRDYQELMNVKLALDVEIATYRKLLEGEECRMSGDLSSNVTVSVTSSTISSNVASKAAFGGSGGRGSSSGGGYSSGSSSYGSGGRQSGSRGGSGGGGSISGGGYGSGGGSGGRYGSGGGSKGGSISGGGYGSGGGKHSSGGGSRGGSSSGGGYGSGGGGSSSVKGSSGEAFGSSVTFSFR | 0.6196 | -0.2079
2 | sp¦P61006¦RAB8A_HUMAN (protein, UniProt P61006 1-204, looked up) Ras-related protein Rab-8A: MAKTYDYLFKLLLIGDSGVGKTCVLFRFSEDAFNSTFISTIGIDFKIRTIELDGKRIKLQIWDTAGQERFRTITTAYYRGAMGIMLVYDITNEKSFDNIRNWIRNIEEHASADVEKMILGNKCDVNDKRQVSKERGEKLALDYGIKFMETSAKANINVENAFFTLARDIKAKMDKKLEGNSPQGSNQGVKITPDQQKRSSFFRC | 0.62 | -0.2076
3 | sp¦Q8TCJ2¦STT3B_HUMAN (protein, UniProt Q8TCJ2 2-826, looked up) Dolichyl-diphosphooligosacchar …: AEPSAPESKHKSSLNSSPWSGLMALGNSRHGHHGPGAQCAHKAAGGAAPPKPAPAGLSGGLSQPAGWQSLLSFTILFLAWLAGFSSRLFAVIRFESIIHEFDPWFNYRSTHHLASHGFYEFLNWFDERAWYPLGRIVGGTVYPGLMITAGLIHWILNTLNITVHIRDVCVFLAPTFSGLTSISTFLLTRELWNQGAGLLAACFIAIVPGYISRSVAGSFDNEGIAIFALQFTYYLWVKSVKTGSVFWTMCCCLSYFYMVSAWGGYVFIINLIPLHVFVLLLMQRYSKRVYIAYSTFYIVGLILSMQIPFVGFQPIRTSEHMAAAGVFALLQAYAFLQYLRDRLTKQEFQTLFFLGVSLAAGAVFLSVIYLTYTGYIAPWSGRFYSLWDTGYAKIHIPIIASVSEHQPTTWVSFFFDLHILVCTFPAGLWFCIKNINDERVFVALYAISAVYFAGVMVRLMLTLTPVVCMLSAIAFSNVFEHYLGDDMKRENPPVEDSSDEDDKRNQGNLYDKAGKVRKHATEQEKTEEGLGPNIKSIVTMLMLMLLMMFAVHCTWVTSNAYSSPSVVLASYNHDGTRNILDDFREAYFWLRQNTDEHARVMSWWDYGYQIAGMANRTTLVDNNTWNNSHIALVGKAMSSNETAAYKIMRTLDVDYVLVIFGGVIGYSGDDINKFLWMVRIAEGEHPKDIRESDYFTPQGEFRVDKAGSPTLLNCLMYKMSYYRFGEMQLDFRTPPGFDRTRNAEIGNKDIKFKHLEEAFTSEHWLVRIYKVKAPDNRETLDHKPRVTNIFPKQKYLSKKTTKRKRGYIKNKLVFKKGKKISKKTV | 0.6204 | -0.2073
4 | sp¦Q9NRP0¦OSTC_HUMAN (protein, UniProt Q9NRP0 1-149, looked up) Oligosaccharyltransferase …: METLYRVPFLVLECPNLKLKKPPWLHMPSAMTVYALVVVSYFLITGGIIYDVIVEPPSVGSMTDEHGHQRPVAFLAYRVNGQYIMEGLASSFLFTMGGLGFIILDRSNAPNIPKLNRFLLLFIGFVCVLLSFFMARVFMRMKLPGYLMG | 0.6247 | -0.2043

Same assay, conditions: akirin2 KO vs WT HL60 cells; sheet "Under-represented in KO"

Row | Molecule | Fold Change | Log (Fold Change)
5 | sp¦P46977¦STT3A_HUMAN (protein, UniProt P46977 1-705, looked up) Dolichyl-diphosphooligosacchar …: MTKFGFLRLSYEKQDTLLKLLILSMAAVLSFSTRLFAVLRFESVIHEFDPYFNYRTTRFLAEEGFYKFHNWFDDRAWYPLGRIIGGTIYPGLMITSAAIYHVLHFFHITIDIRNVCVFLAPLFSSFTTIVTYHLTKELKDAGAGLLAAAMIAVVPGYISRSVAGSYDNEGIAIFCMLLTYYMWIKAVKTGSICWAAKCALAYFYMVSSWGGYVFLINLIPLHVLVLMLTGRFSHRIYVAYCTVYCLGTILSMQISFVGFQPVLSSEHMAAFGVFGLCQIHAFVDYLRSKLNPQQFEVLFRSVISLVGFVLLTVGALLMLTGKISPWTGRFYSLLDPSYAKNNIPIIASVSEHQPTTWSSYYFDLQLLVFMFPVGLYYCFSNLSDARIFIIMYGVTSMYFSAVMVRLMLVLAPVMCILSGIGVSQVLSTYMKNLDISRPDKKSKKQQDSTYPIKNEVASGMILVMAFFLITYTFHSTWVTSEAYSSPSIVLSARGGDGSRIIFDDFREAYYWLRHNTPEDAKVMSWWDYGYQITAMANRTILVDNNTWNNTHISRVGQAMASTEEKAYEIMRELDVSYVLVIFGGLTGYSSDDINKFLWMVRIGGSTDTGKHIKENDYYTPTGEFRVDREGSPVLLNCLMYKMCYYRFGQVYTEAKRPPGFDRVRNAEIGNKDFELDVLEEAYTTEHWLVRIYKVKDLDNRGLSRT | 0.6295 | -0.201
6 | sp¦P57740¦NU107_HUMAN (protein, UniProt P57740 1-925, looked up) Nuclear pore complex protein …: MDRSGFGEISSPVIREAEVTRTARKQSAQKRVLLQASQDENFGNTTPRNQVIPRTPSSFRQPFTPTSRSLLRQPDISCILGTGGKSPRLTQSSGFFGNLSMVTNLDDSNWAAAFSSQRSGLFTNTEPHSITEDVTISAVMLREDDPGEAASMSMFSDFLQSFLKHSSSTVFDLVEEYENICGSQVNILSKIVSRATPGLQKFSKTASMLWLLQQEMVTWRLLASLYRDRIQSALEEESVFAVTAVNASEKTVVEALFQRDSLVRQSQLVVDWLESIAKDEIGEFSDNIEFYAKSVYWENTLHTLKQRQLTSYVGSVRPLVTELDPDAPIRQKMPLDDLDREDEVRLLKYLFTLIRAGMTEEAQRLCKRCGQAWRAATLEGWKLYHDPNVNGGTELEPVEGNPYRRIWKISCWRMAEDELFNRYERAIYAALSGNLKQLLPVCDTWEDTVWAYFRVMVDSLVEQEIQTSVATLDETEELPREYLGANWTLEKVFEELQATDKKRVLEENQEHYHIVQKFLILGDIDGLMDEFSKWLSKSRNNLPGHLLRFMTHLILFFRTLGLQTKEEVSIEVLKTYIQLLIREKHTNLIAFYTCHLPQDLAVAQYALFLESVTEFEQRHHCLELAKEADLDVATITKTVVENIRKKDNGEFSHHDLAPALDTGTTEEDRLKIDVIDWLVFDPAQRAEALKQGNAIMRKFLASKKHEAAKEVFVKIPQDSIAEIYNQCEEQGMESPLPAEDDNAIREHLCIRAYLEAHETFNEWFKHMNSVPQKPALIPQPTFTEKVAHEHKEKKYEMDFGIWKGHLDALTADVKEKMYNVLLFVDGGWMVDVREDAKEDHERTHQMVLLRKLCLPMLCFLLHTILHSTGQYQECLQLADMVSSERHKLYLVFSKEELRKLLQKLRESSLMLLDQGLDPLGYEIQL | 0.6316 | -0.1995
7 | sp¦Q15907¦RB11B_HUMAN (protein, UniProt Q15907 2-215, looked up) Ras-related protein Rab-11B: GTRDDEYDYLFKVVLIGDSGVGKSNLLSRFTRNEFNLESKSTIGVEFATRSIQVDGKTIKAQIWDTAGQERYRAITSAYYRGAVGALLVYDIAKHLTYENVERWLKELRDHADSNIVIMLVGNKSDLRHLRAVPTDEARAFAEKNNLSFIETSALDSTNVEEAFKNILTEIYRIVSQKQIADRAAHDESPGNNVVDISVPPTTDGQKPNKLQCC | 0.6332 | -0.1984
8 | sp¦P30048¦PRDX3_HUMAN (protein, UniProt P30048 62-256, looked up) Thioredoxin-dependent …: APAVTQHAPYFKGTAVVNGEFKDLSLDDFKGKYLVLFFYPLDFTFVCPTEIVAFSDKANEFHDVNCEVVAVSVDSHFSHLAWINTPRKNGGLGHMNIALLSDLTKQISRDYGVLLEGSGLALRGLFIIDPNGVIKHLSVNDLPVGRSVEETLRLVKAFQYVETHGEVCPANWTPDSPTIKPSPAASKEYFQKVNQ | 0.6339 | -0.198
9 | sp¦P23381¦SYWC_HUMAN (protein, UniProt P23381 2-471, looked up) Tryptophan--tRNA ligase, …: PNSEPASLLELFNSIATQGELVRSLKAGNASKDEIDSAVKMLVSLKMSYKAAAGEDYKADCPPGNPAPTSNHGPDATEAEEDFVDPWTVQTSSAKGIDYDKLIVRFGSSKIDKELINRIERATGQRPHHFLRRGIFFSHRDMNQVLDAYENKKPFYLYTGRGPSSEAMHVGHLIPFIFTKWLQDVFNVPLVIQMTDDEKYLWKDLTLDQAYSYAVENAKDIIACGFDINKTFIFSDLDYMGMSSGFYKNVVKIQKHVTFNQVKGIFGFTDSDCIGKISFPAIQAAPSFSNSFPQIFRDRTDIQCLIPCAIDQDPYFRMTRDVAPRIGYPKPALLHSTFFPALQGAQTKMSASDPNSSIFLTDTAKQIKTKVNKHAFSGGRDTIEEHRQFGGNCDVDVSFMYLTFFLEDDDKLEQIRKDYTSGAMLTGELKKALIEVLQPLIAEHQARRKEVTDEIVKEFMTPRKLSFDFQ | 0.6341 | -0.1979
10 | sp¦P20645¦MPRD_HUMAN (protein, UniProt P20645 27-277, looked up) Cation-dependent …: TEEKTCDLVGEKGKESEKELALVKRLKPLFNKSFESTVGQGSDTYIYIFRVCREAGNHTSGAGLVQINKSNGKETVVGRLNETHIFNGSNWIMLIYKGGDEYDNHCGKEQRRAVVMISCNRHTLADNFNPVSEERGKVQDCFYLFEMDSSLACSPEISHLSVGSILLVTFASLVAVYVVGGFLYQRLVVGAKGMEQFPHLAFWQDLGNLVADGCDFVCRSKPRNVPAAYRGVGDDQLGEESEERDDHLLPM | 0.6378 | -0.1953
11 | sp¦Q9H845¦ACAD9_HUMAN (protein, UniProt Q9H845 38-621, looked up) Complex I assembly factor …: AFAKELFLGKIKKKEVFPFPEVSQDELNEINQFLGPVEKFFTEEVDSRKIDQEGKIPDETLEKLKSLGLFGLQVPEEYGGLGFSNTMYSRLGEIISMDGSITVTLAAHQAIGLKGIILAGTEEQKAKYLPKLASGEHIAAFCLTEPASGSDAASIRSRATLSEDKKHYILNGSKVWITNGGLANIFTVFAKTEVVDSDGSVKDKITAFIVERDFGGVTNGKPEDKLGIRGSNTCEVHFENTKIPVENILGEVGDGFKVAMNILNSGRFSMGSVVAGLLKRLIEMTAEYACTRKQFNKRLSEFGLIQEKFALMAQKAYVMESMTYLTAGMLDQPGFPDCSIEAAMVKVFSSEAAWQCVSEALQILGGLGYTRDYPYERILRDTRILLIFEGTNEILRMYIALTGLQHAGRILTTRIHELKQAKVSTVMDTVGRRLRDSLGRTVDLGLTGNHGVVHPSLADSANKFEENTYCFGRTVETLLLRFGKTIMEEQLVLKRVANILINLYGMTAVLSRASRSIRIGLRNHDHEVLLANTFCVEAYLQNLFSLSQLDKYAPENLDEQIKKVSQQILEKRAYICAHPLDRTC | 0.6441 | -0.191
